Residue numbers refer to the chain shown, from its start.
Target: T1, soluble human IL-4Rα (sIL-4Rα; PEPRO TECH, Catalog Number: 200-04R) (human, UniProt P24394 26-232)
T1 construct: Bought protein; also called shIL-4Rα; soluble hIL-4 Rα
T1 sequence: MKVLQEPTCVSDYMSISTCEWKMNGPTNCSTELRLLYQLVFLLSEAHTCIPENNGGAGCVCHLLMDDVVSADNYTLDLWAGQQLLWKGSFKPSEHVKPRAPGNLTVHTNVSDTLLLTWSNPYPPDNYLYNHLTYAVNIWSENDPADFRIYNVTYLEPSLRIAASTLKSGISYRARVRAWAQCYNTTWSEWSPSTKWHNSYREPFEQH
Assay: ELISA, coated sIL-4Rα, culture supernatant
Procedure: Sample to be tested: For each antibody of the present invention, 10 μl and 2 μl of the culture supernatant of Expi293 cells expressing the antibody after transient transfection (the medium was Expi293 Expression Medium, Invitrogen, Catalog Number: A1435102; suspension culture was performed for 4 days at 100 rpm in a 8% CO2 incubator) were respectively added to 990 μl and 998 μl of PBS to prepare antibody samples to be tested of 1:100 and 1:500 dilutions.
100 μl of 100 μg/ml sIL-4Rα solution was added to 9.90 ml of PBS, mixed up and down, and then an antigen coating buffer of 1.0 μg/ml was obtained. The prepared antigen coating buffer was added to a 96-well ELISA plate (Corning) with a volume of 100 μl per well. The 96-well ELISA plate was incubated overnight in a refrigerator at 4° C. On the next day, the solution therein was discarded, and PBS containing 2% BSA was added to the 96-well ELISA plate row by row with a volume of 300 μl per well. The 96-well ELISA plate was incubated for 2 hours in a refrigerator at 4° C. Then the PBS containing 2% BSA was discarded and the plate was washed 3 times with PBST. Diluted antibodies to be tested were sequentially added to the corresponding wells, while the normal cell culture supernatants, as negative control samples, were added too. Three duplicate wells were made for each sample with a volume of 100 μl per well. The ELISA plate was wrapped with preservative film (or covered) and incubated for 1 h at 10° C. in a constant temperature incubator. Subsequently, the 96-well ELISA plate was taken out, and the solution therein was discarded. After washing with PBST for 3 times, TMB solution (Solarbio, Catalog Number: PR1200) was added to the 96-well ELISA plate row by row with a volume of 100 μl per well. The 96-well ELISA plate was placed at room temperature for 5 minutes, and 2 M H2SO4 solution was added in immediately to terminate the reaction. The 96-well ELISA plate was placed in flexstation 3 (Molecular Devices), the values of OD450 were read, and the data were collected, calculated and analyzed. Results were expressed relative to the affinity of control antibody 1.

B1: L1020H1029 (antibody, V domains shown)
VH: EVQLVESGGGLVQPGGSLRLSCAASGFTFSRNAMFWVRQAPGKGLEWVSGIGTGGATSYADSVKGRFTISRDNAKNSLYLQMNSLRAEDMAVYYCARGRYYFPWWGQGTLVTVSS
VL: EIVLTQSPGTLSLSPGERATLSCRASQSVSSSYLAWYQQKPGQAPRLLIYGASSRATGIPDRFSGSGSGTDFTLTISRLEPEDFAVYYCQQYDHSAGWTFGQGTKVEIK
OD450/OD450 Control antibody 1: 1.01 ratio to control antibody 1

B2: L1021H1031 (antibody, V domains shown)
VH: B1 VH with M90T, P103D, W104Y
VL: B1 VL with Y50F, T57P
OD450/OD450 Control antibody 1: 0.9 ratio to control antibody 1

B3: L1021H1027 (antibody, V domains shown)
VH: B1 VH with Q13H, M90T
VL: B1 VL with Y50F, T57P
OD450/OD450 Control antibody 1: 0.29 ratio to control antibody 1

B4: L1021H1016 (antibody, V domains shown)
VH: B1 VH with E6Q, Q13H, A24G, S58N
VL: B1 VL with Y50F, T57P
OD450/OD450 Control antibody 1: 0.63 ratio to control antibody 1

B5: L1021H1029 (antibody, V domains shown)
VH: B1 VH
VL: B1 VL with Y50F, T57P
OD450/OD450 Control antibody 1: 1 ratio to control antibody 1

B6: L1021H1000 (antibody, V domains shown)
VH: B1 VH with E6Q, Q13H, A24G, S58N, P103D, W104Y
VL: B1 VL with Y50F, T57P
OD450/OD450 Control antibody 1: 2.42 ratio to control antibody 1

B7: L1021H1007 (antibody, V domains shown)
VH: B1 VH with E6Q, Q13H, A24G, P103D, W104Y
VL: B1 VL with Y50F, T57P
OD450/OD450 Control antibody 1: 0.44 ratio to control antibody 1

B8: L1024H1000 (antibody, V domains shown)
VH: B1 VH with E6Q, Q13H, A24G, S58N, P103D, W104Y
VL: B1 VL with S31N, Y50F, T57P
OD450/OD450 Control antibody 1: 0.69 ratio to control antibody 1

B9: L1024H1031 (antibody, V domains shown)
VH: B1 VH with M90T, P103D, W104Y
VL: B1 VL with S31N, Y50F, T57P
OD450/OD450 Control antibody 1: 0.9 ratio to control antibody 1

B10: L1021H1020 (antibody, V domains shown)
VH: B1 VH with E6Q, Q13H, A24G
VL: B1 VL with Y50F, T57P
OD450/OD450 Control antibody 1: 0.24 ratio to control antibody 1

B11: L1024H1007 (antibody, V domains shown)
VH: B1 VH with E6Q, Q13H, A24G, P103D, W104Y
VL: B1 VL with S31N, Y50F, T57P
OD450/OD450 Control antibody 1: 0.23 ratio to control antibody 1

B12: L1022H1000 (antibody, V domains shown)
VH: B1 VH with E6Q, Q13H, A24G, S58N, P103D, W104Y
VL: B1 VL with S31N
OD450/OD450 Control antibody 1: 0.16 ratio to control antibody 1

B13: L1020H1031 (antibody, V domains shown)
VH: B1 VH with M90T, P103D, W104Y
VL: B1 VL
OD450/OD450 Control antibody 1: 1.12 ratio to control antibody 1

From patent US20210079088A1 (published 2021)
